# Experimental data reported in paper PMC6885686, “RRM adjacent TARDBP mutations disrupt RNA binding and enhance TDP-43 proteinopathy”.
# Molecular target: TDP-43 RRM1-2 WT (UniProt Q13148 102-269)
# Test: BLI; EMSA: 5 ug total lysate in RIPA with RNase inhibitor, 2 ug tRNA, 1 uM unlabelled (GU)x6 and 2.5 nM biotin-(GU)x6, 30 min room temperature, 6% native PAGE; BLI buffer not given in the material (protein purified in phosphate buffer pH 7.2)
# Details: protein: recombinant; tags: 6xHis-SUMO removed by TEV
# Sequence of TDP-43 RRM1-2 WT (Q13148 102-269): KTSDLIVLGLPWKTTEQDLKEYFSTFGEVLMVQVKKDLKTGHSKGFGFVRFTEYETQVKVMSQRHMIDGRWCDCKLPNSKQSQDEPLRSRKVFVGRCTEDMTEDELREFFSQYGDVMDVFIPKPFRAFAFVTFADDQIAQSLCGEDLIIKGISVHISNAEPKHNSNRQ
binder,measurement,value
GUGUGAAUGAAU (ssRNA) [AUG-RNA],Kd,3.2 ± 0.9 nM
